This note sets out measurements from patent publication US20090226437A1 (Genentech, published 2009).

Assay [1] has as its target alphaEbeta7 on alphaEbeta7-transfected 293 cells (human) (UniProt P38570). The assay can be described thus: cell adhesion inhibition, alphaEbeta7 293 cells on coated huE-Cadherin, experiment 1 of 3.
The target is the same in assay [2]. The assay can be described thus: cell adhesion inhibition, alphaEbeta7 293 cells on coated huE-Cadherin, experiment 2 of 3.
The target is the same in assay [3]. The assay can be described thus: cell adhesion inhibition, alphaEbeta7 293 cells on coated huE-Cadherin, experiment 3 of 3.
Assay [4] deals with T1, Full length human integrin alpha4beta7 (expressed in 293 cells, purified by Fib504 affinity chromatography) (human, UniProt P13612 34-1032; P26010 20-798).
T1 construct: mature; also called immobilized alpha4beta7
The assay can be described thus: BIAcore (column head 'BIAcore Affinity Assay (nM)'); per paragraph 379 the Fab was immobilised on a CM5 chip and human integrin alpha4beta7 injected. The row shows unchanged L1 … and L2 KYASQSIS in the 'Fib504•K RF framework', i.e. the starting Fib504K-RF graft. The procedure:
(§1) Affinity determinations were performed by surface plasmon resonance using a BIAcore™-3000 (Biacore, Piscataway, N.J.). Humanized Fib504 Fab variants were immobilized in 10 mM acetate pH 4.5 (ranging from 250 to 1500 response units (RU)) on a CM5 sensor chip and 2-fold dilutions of human integrin alpha4beta7 (1.5 to 770 nM) in TBSM containing 2% n-octylglucoside were injected. Each sample was analyzed with 5-minute association and 5 to 60-minute dissociation times. After each injection, the chip was regenerated using three 1-minute injections of 8 M urea. Binding response was corrected by subtracting the RU from a blank flow cell. A 1:1 Languir model of simultaneous fitting of kₒₙ and koff was used for kinetics analysis.
(§2) Libraries were generated as before using a soft randomization strategy simultaneously at each of the 6 HVRs for the Fib504K-RL and Fib504K-RF grafts and sorted on immobilized alpha4beta7 for 4 rounds of selection as described above. Enrichment was only observed for the library based on the Fib504K-RF graft. […] Most clones contained the change Y32L; in addition position 31 was frequently changed to D, S, P or N (FIG. 1C). In addition to the starting graft, Fib504K-RF, 3 clones were expressed and purified as Fab protein and further analyzed by Biacore as described above. […]

Assay [5] addresses T1, Full length human integrin alpha4beta7 …. The assay can be described thus: phage binding assay (OD): Fab displayed on phage, immobilised alpha4beta7, albumin as control coat.
Assay [6] has the same target. The assay can be described thus: SPR (BIAcore), Fab; reference Fib504 Fab. The procedure: as §1, §2
The target is the same in assay [7]. The assay can be described thus: SPR (BIAcore-3000), Fab immobilized, alpha4beta7 injected. How it is done: as §1
Libraries were generated as before using a soft randomization strategy simultaneously at each of the 6 HVRs for the Fib504K-RL and Fib504K-RF grafts and sorted on immobilized alpha4beta7 for 4 rounds of selection as described above. Enrichment was only observed for the library based on the Fib504K-RF graft. […] Most clones contained the change Y32L; in addition position 31 was frequently changed to D, S, P or N (FIG. 1C). In addition to the starting graft, Fib504K-RF, 3 clones were expressed and purified as Fab protein and further analyzed by Biacore as described above. […] The results of the Biacore analysis are shown in Table 3, below, and indicate that selected variation in the HVRs and/or framework regions, disclosed herein, generated antagonist antibodies to alpha4beta7 having improved affinity relative to the starting antibody.

The target is the same in assay [8]. The assay can be described thus: BIAcore (column head 'BIAcore Affinity Assay (nM)'); per paragraph 379 the Fab was immobilised on a CM5 chip and human integrin alpha4beta7 injected. The procedure:
as §1, §2

T1 sequence (P13612 34-1032, chain 1 of 2): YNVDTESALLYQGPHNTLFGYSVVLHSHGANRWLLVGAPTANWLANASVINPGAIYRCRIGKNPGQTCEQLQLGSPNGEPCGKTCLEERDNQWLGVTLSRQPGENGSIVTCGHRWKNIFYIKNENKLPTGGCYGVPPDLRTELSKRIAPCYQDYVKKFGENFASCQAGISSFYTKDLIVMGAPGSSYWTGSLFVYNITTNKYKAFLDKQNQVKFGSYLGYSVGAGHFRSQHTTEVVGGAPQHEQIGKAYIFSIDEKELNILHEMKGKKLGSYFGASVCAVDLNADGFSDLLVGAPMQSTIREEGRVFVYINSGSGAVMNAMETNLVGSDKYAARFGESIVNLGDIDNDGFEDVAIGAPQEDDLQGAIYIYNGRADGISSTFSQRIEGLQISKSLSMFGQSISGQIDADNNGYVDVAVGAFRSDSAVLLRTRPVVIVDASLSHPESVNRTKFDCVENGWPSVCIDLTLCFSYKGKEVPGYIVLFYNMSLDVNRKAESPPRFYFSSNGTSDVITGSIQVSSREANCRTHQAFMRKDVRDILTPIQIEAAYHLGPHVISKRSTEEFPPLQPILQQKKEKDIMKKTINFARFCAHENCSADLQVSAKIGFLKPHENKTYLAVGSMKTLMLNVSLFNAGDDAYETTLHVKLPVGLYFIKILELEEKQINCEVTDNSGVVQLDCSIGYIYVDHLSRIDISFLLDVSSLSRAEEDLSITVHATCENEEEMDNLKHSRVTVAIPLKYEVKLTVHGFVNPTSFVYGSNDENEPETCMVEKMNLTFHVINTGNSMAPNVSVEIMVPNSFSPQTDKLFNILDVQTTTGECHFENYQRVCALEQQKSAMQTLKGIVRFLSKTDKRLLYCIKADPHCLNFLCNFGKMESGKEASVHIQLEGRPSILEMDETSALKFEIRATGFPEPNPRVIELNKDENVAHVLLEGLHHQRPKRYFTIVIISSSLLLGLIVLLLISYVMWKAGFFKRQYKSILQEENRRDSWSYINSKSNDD
T1 sequence (P26010 20-798, chain 2 of 2): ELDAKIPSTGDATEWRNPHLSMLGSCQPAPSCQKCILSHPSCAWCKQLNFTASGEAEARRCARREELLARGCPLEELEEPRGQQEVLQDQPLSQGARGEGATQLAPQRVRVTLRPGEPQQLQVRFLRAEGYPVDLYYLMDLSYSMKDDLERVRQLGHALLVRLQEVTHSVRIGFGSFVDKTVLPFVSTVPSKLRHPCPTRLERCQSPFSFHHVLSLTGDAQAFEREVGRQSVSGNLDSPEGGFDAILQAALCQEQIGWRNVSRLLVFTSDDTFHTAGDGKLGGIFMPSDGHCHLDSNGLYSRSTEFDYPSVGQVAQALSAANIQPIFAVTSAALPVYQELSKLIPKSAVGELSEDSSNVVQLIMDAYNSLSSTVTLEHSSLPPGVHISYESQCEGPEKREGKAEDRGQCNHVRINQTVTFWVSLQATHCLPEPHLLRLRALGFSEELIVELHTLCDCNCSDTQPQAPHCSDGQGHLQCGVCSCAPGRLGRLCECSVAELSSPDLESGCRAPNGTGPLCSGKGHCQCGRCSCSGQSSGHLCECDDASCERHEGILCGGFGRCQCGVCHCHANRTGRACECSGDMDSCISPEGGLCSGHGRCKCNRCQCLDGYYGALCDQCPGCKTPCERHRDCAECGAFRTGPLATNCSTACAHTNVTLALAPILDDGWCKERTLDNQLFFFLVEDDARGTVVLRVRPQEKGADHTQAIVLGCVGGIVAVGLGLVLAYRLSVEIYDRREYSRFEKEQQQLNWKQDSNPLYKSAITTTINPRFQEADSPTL
Sequence of alphaEbeta7 on alphaEbeta7-transfected 293 cells (human) (P38570 19-1179, chain 1 of 2): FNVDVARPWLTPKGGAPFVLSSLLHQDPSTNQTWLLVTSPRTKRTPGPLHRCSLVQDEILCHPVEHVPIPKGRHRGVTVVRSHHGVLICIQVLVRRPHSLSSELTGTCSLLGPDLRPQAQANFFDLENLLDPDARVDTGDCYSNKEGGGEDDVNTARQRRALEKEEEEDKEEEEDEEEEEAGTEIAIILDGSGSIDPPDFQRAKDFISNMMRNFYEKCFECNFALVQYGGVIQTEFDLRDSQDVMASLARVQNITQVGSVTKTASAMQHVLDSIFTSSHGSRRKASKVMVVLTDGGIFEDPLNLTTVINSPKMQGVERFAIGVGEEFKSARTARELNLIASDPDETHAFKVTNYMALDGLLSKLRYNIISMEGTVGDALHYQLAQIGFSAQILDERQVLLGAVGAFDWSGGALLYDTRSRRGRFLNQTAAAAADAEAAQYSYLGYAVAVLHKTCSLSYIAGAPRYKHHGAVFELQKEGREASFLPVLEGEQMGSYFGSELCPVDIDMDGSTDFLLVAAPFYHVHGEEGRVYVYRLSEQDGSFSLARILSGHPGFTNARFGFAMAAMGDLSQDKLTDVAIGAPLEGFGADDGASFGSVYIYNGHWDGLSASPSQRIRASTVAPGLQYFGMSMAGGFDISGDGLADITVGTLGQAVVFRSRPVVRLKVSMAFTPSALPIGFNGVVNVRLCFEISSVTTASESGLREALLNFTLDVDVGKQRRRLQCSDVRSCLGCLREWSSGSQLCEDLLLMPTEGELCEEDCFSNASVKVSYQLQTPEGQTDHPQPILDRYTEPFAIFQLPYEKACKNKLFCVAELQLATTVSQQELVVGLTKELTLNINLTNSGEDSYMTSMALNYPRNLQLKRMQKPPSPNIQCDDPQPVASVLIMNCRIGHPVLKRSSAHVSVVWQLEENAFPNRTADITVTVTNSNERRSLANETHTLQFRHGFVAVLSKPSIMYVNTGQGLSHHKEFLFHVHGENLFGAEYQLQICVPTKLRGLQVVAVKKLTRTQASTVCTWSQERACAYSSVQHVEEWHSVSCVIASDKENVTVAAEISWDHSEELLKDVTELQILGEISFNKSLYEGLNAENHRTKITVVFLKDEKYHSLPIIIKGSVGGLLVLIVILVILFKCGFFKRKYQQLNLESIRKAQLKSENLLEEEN
Sequence of alphaEbeta7 on alphaEbeta7-transfected 293 cells (human) (P26010 20-798, chain 2 of 2, further chain): as the sequence (P26010 20-798, chain 2 of 2) above

In the case of HP2/1 (anti-alpha4, control) (antibody), the IC90 in assay [1], in assay [2] and in assay [3] was above 100 nM each time.

B1: Fib504K-RF graft (Fib504K graft in the RF acceptor framework), Fab (Fab, V domains shown)
VH: EVQLVESGGGLVQPGGSLRLSCAASGFFITNNYWGWVRQAPGKGLEWVGYISYSGSTSYNPSLKSRFTISRDTSKNTFYLQMNSLRAEDTAVYYCAMTGSSGYFDFWGQGTLVTVSS
VL: DIQMTQSPSSLSASVGDRVTITCRASESVDTYLHWYQQKPGKAPKLLIKYASQSISGVPSRFSGSGSGTDFTLTISSLQPEDFATYYCQQGNSLPNTFGQGTKVEIKR
notes: number not given; also called hu504K-RF graft
Turning to B1, in assay [4], the Kd amounted to 132 nM. That is a sub-micromolar value.

B2: Fib504-RF (Fib504 graft in the RF acceptor framework), Fab displayed on phage (Fab, name in Kabat numbering, V domains shown)
VH: EVQLVESGGGLVQPGGSLRLSCAASGFFITNNYWGWVRQAPGKGLEWVGYISYSGSTSYNPSLKSRFTISRDTSKNTFYLQMNSLRAEDTAVYYCAMTGSSGYFDFWGQGTLVTVSS
VL: DIQMTQSPSSLSASVGDRVTITCRASESVDTYLHWYQQKPGKAPKLLIYYASQSISGVPSRFSGSGSGTDFTLTISSLQPEDFATYYCQQGNSLPNTFGQGTKVEIKR
notes: It is built from the Fib504 graft chains with the RF framework changes; Tested as Fab on phage; also called hu504-RF
B2: the binding result in assay [5] is recorded as “no binding”.

B3: Variant hu504.32, Fab (Fab, V domains shown)
VH: EVQLVESGGGLVQPGGSLRLSCAASGFFITNNYWGWVRQAPGKGLEWVGYISYSGSTSYNPSLKSRFTISRDTSKNTFYLQMNSLRAEDTAVYYCAMTGSSGYFDFWGQGTLVTVSS
VL: DIQMTQSPSSLSASVGDRVTITCRASESVDDLLHWYQQKPGKAPKLLIKYASQSISGVPSRFSGSGSGTDFTLTISSLQPEDFATYYCQQGNSLPNTFGQGTKVEIKR
notes: T31D and Y32L in the light chain of the hu504 Kgraft; Tested as Fab; also called Variant 504.32; humanized variant 504.32
On to B3, for which the “fold tighter binding relative to the starting rat antibody” value in assay [6] worked out at 3 fold. The dissociation constant Kd came to 3 nM in assay [7] and 3.5 nM in assay [8].
